This note sets out measurements from patent US20160009800A1 (XOMA US, published 2016).

Assay [1] addresses T1, mouse insulin receptor (mouse, UniProt P15208 28-1372).
T1 construct: whole, on cells; also called muINSR; mINSR
The assay is described as follows: FACS, serum-starved CHO-K1 cells expressing mouse INSR, no insulin [cont'd].

In assay [2] the target is T2, mouse insulin receptor complexed with human insulin (mouse; human, UniProt P15208 28-1372; P01308 25-54; P01308 90-110).
T2 construct: whole, on cells;mature; also called muINSR/hINS complex
The assay is described as follows: FACS, serum-starved CHO-K1 cells expressing mouse INSR, with insulin [cont'd]. A general note: Flow cytometry measures light scatter and fluorescence of single cells or particles in a stream.
Method: (§1) Twenty five microliter aliquots of cells were plated into 96 well plates, mixed with 25 ul of antibody or PPE and incubated on ice for 1 h.
(§2) The cells were then washed once with FACS buffer and the binding of the antibody was detected by the addition of 25 ul of an appropriate fluorochrome-conjugated secondary antibody. […] After a final 15 min incubation on ice the cells were washed and the pellets resuspended in FACS buffer. The cells were analyzed on a FACSCAN™ (Becton-Dickinson, Milipitas, Calif.) and the data analyzed in both FLOWJO™ (Treestar, Ashland, Oreg.) and Microsoft Excel™.

The target of assay [3] is T2, mouse insulin receptor complexed with …. The assay is described as follows: FACS, CHO-K1 mouse INSR cells, signal with insulin divided by signal without insulin [cont'd].
Method: as §1, §2
Assay [4] deals with T3, human insulin receptor (human, UniProt P06213 28-1382).
T3 construct: whole, on cells; Uncomplexed receptor on serum-starved cells (CHOK1 transfectants or IM-9); also called hINSR; INSR
The assay is described as follows: FACS, serum-starved CHO-K1 cells expressing human INSR, no insulin.
Method: as §1, §2

Assay [5] concerns the target T1, mouse insulin receptor. The assay is described as follows: FACS, serum-starved CHO-K1 cells expressing mouse INSR, no insulin.
Assay [6] has as its target T4, human insulin receptor complexed with human insulin (human, UniProt P06213 28-1382; P01308 25-54; P01308 90-110).
T4 construct: whole, on cells;mature; also called hINSR-hINS complex; INS/INSR complex
The assay is described as follows: FACS, serum-starved CHO-K1 cells expressing human INSR, with insulin.
Method: as §1, §2

Assay [7] addresses T2, mouse insulin receptor complexed with …. The assay is described as follows: FACS, serum-starved CHO-K1 cells expressing mouse INSR, with insulin.
Assay [8] has as its target T4, human insulin receptor complexed with …. The experiment in a line: FACS, CHO-K1 human INSR cells, signal with insulin divided by signal without insulin.
Method: as §1, §2
For assay [9], the target named is T2, mouse insulin receptor complexed with …. The assay is described as follows: FACS, CHO-K1 mouse INSR cells, signal with insulin divided by signal without insulin.
Method: as §1, §2
Assay [10] has as its target T1, mouse insulin receptor. The experiment in a line: FACS on mouse INSR; conditions not given on the sheet.

B1: Ab081 (antibody, IgG2, V domains shown)
VH: EVQLVETGGGVVQPGRSLRLSCAASGFTFSSYAMHWVRQAPGKGLEWVAVISYDGSNKYYADSVKGRFTISRDNSKNTLYLQMNSLRAEDTAVYYCARHEWGFGMDVWGQGTTVTVSS
VL: DVVMTQSPLSLSVTLGQPASISCRSSLSLVYGDENTYLNWFQQRPGQSPRRLLYKVSDRDSGVPDRFSGSGSGTDFTLKISRVEADDVGVYYCMQGTHWPYTFGQGTKLEIK
notes: Negative modulator; also called XPA.015.247
For B1, the “FACS area under log transformed data MFI” value in [1] is 189; in assay [2] it was 125. Moreover, the “FACS area under log transformed data MFI ratio (+insulin/-insulin)” value in assay [3] came to 0.66.

B2: Ab060 (antibody, IgG2, V domains shown)
VH: QMQLVQSGAEVKKPGSSVKVSCKASGGTFSSYAISWVRQAPGQGLEWMGIINPSGGSTSYAQKFQGRVTMTRDRSTSTVYMELSSLTSEDTAVYYCVRDNHGWSFDYWGQGTLVTVSS
VL: QAVLTQPASLSASPGESARLTCTLPSDINVRYYNIYWYQQKPGSPPRYLLYYYSDSNKDQGSGVPSRFSGSKDVSTNTGILVISGLQSEDEAEYYCMTWSSNGSGVFGGGTQLTVL
notes: also called XPA.015.207
With B2, the “FACS area under log transformed data MFI” value turned out to be 460 in assay [4], 210 in assay [5], 308 in [6] and 388 in assay [7]. Besides, the “FACS area under log transformed data MFI ratio (+insulin/-insulin)” value in [8] worked out at 0.67; in [9], 1.85.

B3: Ab052 (antibody, IgG2, V domains shown)
VH: EVQLVQSGAEVKKPGESLKISCKGSGYRFTSYWIGWVRQMPGRGLEWMGIIYPGDSDTRYSPSFQGQVTISVDKSISTAYLQWSSLKASDTAMYYCATHHASGRGLDPWGQGTLVTVSS
VL: QAMLTQPASLSASPGASASLTCTLRSGINVVAYNIYWYRQKSGSPPQSVLRYKSDSDSERDSGVPSRFSGSKDVSANAGILLISGLQSEDEADYYCLIWHNSAWVFGGGTQLTVL
notes: also called XPA.015.195
For B3, the results for the “FACS area under log transformed data MFI” value in [4], in assay [5] and in [7] were 445, 892 and 397, respectively. Further, in assay [9], the “FACS area under log transformed data MFI ratio (+insulin/-insulin)” value came out at 0.45.

B4: Ab056 (antibody, IgG2, V domains shown)
VH: QVQLVQSGSEVKKPGASVKVSCKASGYTFTNSYMHWVRQAPGQGLEWMGIINPSAGTSYAQKFQGRVTMTRDTSTSTVYMELSSLKSEDTAVYYCARDVGWLPGDYWGQGTLVTVSS
VL: QSALTQPASVSESPGQSITISCTGTGSDIGTYNLVSWYQHHPGKAPKLMIYEVTKRPSGVSNRFSGSKSGNTASLTISGLQAEDEADYYCSSYTSSSTLYVFGTGTKLTVL
notes: also called XPA.015.199
B4: the figures for the “FACS area under log transformed data MFI” value in assay [4] and in assay [6] were 1110 and 927, respectively. Also, the “FACS area under log transformed data MFI ratio (+insulin/-insulin)” value in [8] is 0.84.

B5: Ab054 (antibody, IgG2, V domains shown)
VH: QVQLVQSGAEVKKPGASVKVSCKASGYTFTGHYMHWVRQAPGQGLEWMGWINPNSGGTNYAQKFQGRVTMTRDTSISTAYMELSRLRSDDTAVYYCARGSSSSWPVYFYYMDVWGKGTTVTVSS
VL: QSALTQPRSVSESPGKTVTISCTGSGGSIGSNYVQWYQQRPGSAPTTVIFEDNRRPSGVPDRFSGSIHSSSNSASLTISGLKTEDEADYYCQSYVGTIVVFGGGTKVTVL
notes: also called XPA.015.197
Turning to B5, the “FACS area under log transformed data MFI” value came out at 1130 in assay [4], 1030 in assay [5], 356 in assay [6] and 519 in [7]. Moreover, the “FACS area under log transformed data MFI ratio (+insulin/-insulin)” value was 0.32 in [8] and 0.51 in assay [9].

B6: Ab063 (antibody, IgG2, V domains shown)
VH: QVQLQQSGPGLVKPSQTLSLTCAISGDSVSSNSAAWNWIRQSPSRGLEWLGRTYYRSKWYTDYALSVKSRITINPDTSKNQFSLHLNSVTPEDTAVYYCAREGWLGYFDFWGQGTLVTVSS
VL: SSELTQPPSVSVAPGKTATITCGGDNIASKSVHWYQQKPGQAPVLVLYDDSVRPSDIPERFSGSNSANTATLTLTRVEAGDEGEYYCQVWDVRSDHPFFGPGTKVTVL
notes: also called XPA.015.212
With B6, the “FACS area under log transformed data MFI” value was determined as 943 in assay [4], 1020 in assay [5], 674 in assay [6] and 733 in assay [7]. Moreover, the “FACS area under log transformed data MFI ratio (+insulin/-insulin)” value was found to be 0.71 in assay [8] and 0.72 in assay [9].

B7: Ab064 (antibody, IgG2, V domains shown)
VH: QVQLVQSGAEVKKPGESLKISCKGSGFSFPSYWIGWVRQMPGKGLELVGIIYPGDSDIRYSPSFQGQVTISADTSISTVYLQWSSLQTTDTATYYCARGGFNWFDPWGQGTLVTVSS
VL: QAVVTQEPSLTVSPGGTVTLTCASSTGAVTSGYYPNWFQQKPGQAPRALIYSTSNKHSWTPARFSGSLLGGKAALTLSGVQPEDEAEYYCLLYYGGAQPWVFGGGTQLTVL
notes: also called XPA.015.213
On to B7, for which the “FACS area under log transformed data MFI” value in assay [4] stood at 1710; in assay [5], 1020; in assay [6] it was 1270; in assay [7] it was 813. Also, the “FACS area under log transformed data MFI ratio (+insulin/-insulin)” value was found to be 0.74 in assay [8] and 0.8 in [9].

B8: Ab069 (antibody, IgG2, V domains shown)
VH: EVQLVQSGAEVKKPGESLKISCKGSGYSFTSYWIGWVRQMPGKGLEWMGIIYPGDSDTRYSPSFQGQVTISADKSISIAYLQWSSLKASDTAMYYCARLGRGYYGMDVWGQGTTVTVSS
VL: SSELTQDPAVSVALGQTVRITCQGDSLRSYYASWYQQKPGQAPVLVIYGKNNRPSGIPDRFSGSRSGNTASLTITGAQAEDEADYYCNSRDSSGNHVVFGGGTKVTVL
notes: also called XPA.015.222
For the molecule B8, the “FACS area under log transformed data MFI” value in assay [4] worked out at 357; in [5], 642; in [7], 383. For the same molecule, the “FACS area under log transformed data MFI ratio (+insulin/-insulin)” value in assay [9] was determined as 0.6.

B9: Ab057 (antibody, IgG2, V domains shown)
VH: QMQLVQSGAEVKKPGESLKISCKGYGYRFSDNWIGWVRQMPGRGLEWMGIIYPGDSETRYSPSFQGQVTISADKSISTAYLQWSSLKASDTAMYYCARHAPLAVAGMALGDWGQGTLVTVSS
VL: QTVVTQEPSFSVSPGGTVTLTCGLTSGSVSTSYYPSWYQQTPGQAPRMLVHSTSTRYSGVPDRFSGSILGNKAALTITGAQADDESDYYCALYMGGGIYVFGGGTQLTVL
notes: also called XPA.015.200
Consider B9, for which the “FACS area under log transformed data MFI” value in assay [5] is 409; in assay [7], 250. For the same molecule, the “FACS area under log transformed data MFI ratio (+insulin/-insulin)” value in [9] turned out to be 0.61.

B10: Ab065 (antibody, IgG2, V domains shown)
VH: QVQLVQSGAEVKKPGESLKISCKGSGYSFTSYWIGWVRQMPGKGLEWMGIIYPGDSDTRYSPSFQGQVTISADKSISTAYLQWSSLKASDTAMYYCARHELGIDYWGQGTLVTVSS
VL: QAGLTQPPSVSKGLRQTATLTCTGDNNIVGDQGAAWLQQHQGHPPKLLSFRNNSRPSGISERFSASRSRNTASLTITRLQPEDAADYYCSAWDSFLSAWVFGGGTKLTVL
notes: also called XPA.015.214
Regarding B10, the “FACS area under log transformed data MFI” value in assay [4] amounted to 205; in [5], 483; in [7], 177. The “FACS area under log transformed data MFI ratio (+insulin/-insulin)” value in [9] is 0.37.

B11: Ab028 (antibody, V domains shown)
VH: EVQLLESGGGLVQPGGSLRLSCAASGFTFRNYWMTWVRQAPGKGLEWVANIKQDGSEKYYVDSVKGRSTISRDNSKNTLYLQMNSLRAEDTAVYYCARQVGGGPFDIWGQGTLVTVSS
VL: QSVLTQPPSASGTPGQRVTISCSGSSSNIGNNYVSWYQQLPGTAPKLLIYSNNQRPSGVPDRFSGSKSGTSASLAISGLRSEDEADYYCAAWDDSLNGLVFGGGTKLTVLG
notes: also called XPA.015.059
As for B11, in assay [10], the binding result was “no binding”.

B12: Ab027 (antibody, V domains shown)
VH: EVQLLESGGGLVQPGGSLGLSCAASGFTFNNYWMSWVRQAPGKGLEWVSYISGSGRTIYYADSVKGRFTISRDNSKNTLYLQMNSLRAEDTAVYYCARVGSSGWYYFDYWGQGTLVTVSS
VL: QSVLTQPPSASGTPGQRVTISCSGRSSNIENNYVSWYQQLPGTAPKLLIYGNSNRPSGVPDRFSGSKSGTSASLAISGLRSEDEADYYCAAWDDSLNGVVFGGGTKLTVLG
notes: also called XPA.015.042
For B12, the binding result in assay [10] was “no binding”.

B13: Ab050 (antibody, IgG2, V domains shown)
VH: QVQLVQSGAELKKPGATVKISCKVSGYTFGDYHMHWVKQAPGKGLEWMGLVDPENGETEYGEKFQDRITMAADTSTDTAYMELSSLRSEDTAVYYCARSPSSSGYFRVDGFDIWGQGTMVTVSS
VL: NFMLTQPHSVSESPGKTVSISCTGSSGSIGSNYVQWYQQRPGSAPTTVIYEDNQRPSGVPDRFSGSIDSSSNSASLTISGLKTEDEADYYCQSYYNSNVVFGGGTKLTVL
notes: also called XPA.015.193
In the case of B13, the figures for the “FACS area under log transformed data MFI” value in assay [4], in [5] and in assay [7] were 252, 424 and 170, respectively. Further, the “FACS area under log transformed data MFI ratio (+insulin/-insulin)” value in assay [9] was 0.4.
